Experimental findings from paper PMC6663954 are described below.

This experiment addresses RsPGs (polygalacturonases from Rhizoctonia solani) (Rhizoctonia solani).

Consider “OsPGIP2^L233F, recombinant His-tagged (natural protein)”, for which the reduction of RsPG activity, reduced sugar assay (polygalacturonic acid, 50 mM sodium citrate pH 5.0, 37 °C, 1 h) is 40.6%.
